Test results as given in publication PMC10179326.

Target: alpha-thrombin (Homo sapiens, UniProt P00734;P00734 328-363;364-622)
Assay: MST; potassium phosphate pH 7.5, 20 nM aptamer; EMSA: 10 mM sodium cacodylate pH 7.2, 100 mM KCl in D2O, incubation 25 C, 12% native gel in 1x TBE + 10 mM KCl at 10 C; MST: 10 mM Tris-HCl, 100 mM potassium ph

Binder | Kd [nM]
GGTTGGTGTGGTTGG (structured_DNA) [TBA (15-mer thrombin binding aptamer)] | 19.5
GGGTTGGGTGTGGGTTGGG (structured_DNA, alpha-deoxyguanosine at positions 1,12; tripeptide GLE conjugated at T4 (N3 position, equivalent of T3 in TBA)) [2GLE (analogue 2 - GLE tripeptide conjugate)] | 2.7
